Experimental data published in PMC3020918.

Molecular target: myc-Snc2p (S. cerevisiae) (UniProt P33328)
Experiment: co-IP

Sequence of UniProt P33328 (P33328 whole entry): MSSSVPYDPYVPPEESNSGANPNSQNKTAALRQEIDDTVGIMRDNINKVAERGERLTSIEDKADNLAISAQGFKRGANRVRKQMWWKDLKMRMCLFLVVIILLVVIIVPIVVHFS

Question: For “Sso1/2p (endogenous) (from UniProt P32867 1-290) (natural protein)”, which percent reduction of co-precipitation, wt cells at 37°C against 30°C is on record?
Answer: 10%
